Measured values as given in paper PMC2186165.

Molecular target: B lymphocyte surface IgM (mouse (endogenous in spleen cells))
Experiment: cocapping

B lymphocyte surface IgM (mouse (endogenous in spleen cells)), sequence (P01872 whole entry): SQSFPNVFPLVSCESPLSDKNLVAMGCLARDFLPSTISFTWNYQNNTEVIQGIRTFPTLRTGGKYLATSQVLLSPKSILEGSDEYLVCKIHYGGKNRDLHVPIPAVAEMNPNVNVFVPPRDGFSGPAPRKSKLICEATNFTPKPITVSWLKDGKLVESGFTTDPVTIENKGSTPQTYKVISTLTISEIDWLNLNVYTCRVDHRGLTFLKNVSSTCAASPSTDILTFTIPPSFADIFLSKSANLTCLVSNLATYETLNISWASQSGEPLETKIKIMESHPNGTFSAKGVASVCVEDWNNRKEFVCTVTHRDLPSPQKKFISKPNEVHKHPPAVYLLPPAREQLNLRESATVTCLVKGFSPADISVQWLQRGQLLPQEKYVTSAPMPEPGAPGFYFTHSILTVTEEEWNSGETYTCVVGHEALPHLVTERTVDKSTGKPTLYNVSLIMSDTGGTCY

% of B lymphocytes with capped sIgM that also had capped FcGR (12 experiments): 86% | % of FcGR-positive cells with FcGR capped (Table III, experiment B, part 4): 62% | % of FcGR-positive cells with FcGR capped (Table IV, part 4): 46%
Substance: B lymphocyte Fc IgG receptor (from UniProt P08101 30-330)
